The values below come from publication PMC3958920 (FEBS Open Bio, 2014).

The series “SEC” deals with the molecule itself. Description: SEC. A general note: In gel filtration, larger molecules generally elute earlier.
Substrate in series [1]: O=C(O)C1=NCCCC1
Nature of the series: purified protein. As to conditions: NADPH.

Substrate in series [2]: O=C(O)C1=NCCC1
Description: purified protein. Conditions: NADPH.

Substrate in series [3]: O=C(O)[C@@H]1CCCN1
Description: purified protein. Conditions: NADP+.

Substrate in series [4]: O=C(O)C1=NC[C@@H](O)C1
Nature of the series: purified protein. Conditions: NADPH.

Substrate in series [5]: O=C(O)[C@@H]1CCCCN1
Description: purified protein. Conditions: NADP+.

[6] abbreviates: potassium phosphate pH 6.5, 30 °C.
Setting [7] is: potassium phosphate pH 7.0, 30 °C.

B1: AbLhpH, trans-3-hydroxy-L-proline dehydratase of Azospirillum brasilense (enzyme, UniProt V5YXI5 1-335, looked up)
chain: MKITRSLSTVEVHTGGEAFRIVTSGLPRAPGDTIVQRRAWLKENADEIRRALMFEPRGHADMYGGYLTEPVSPNADFGVIFVHNEGYSDHCGHGVIALSTAAVELGWVQRTVPETRVGIDAPCGFIEAFVKWDGEHAGPVRFVNVPSFIWQRDVSVETPSFGTVTGDIAYGGAFYFYVDGAPFDLPVREAAVEKLIRFGAEVKAAANAKYPVVHPEIPEINHIYGTIIANAPRHPGSTQANCCVFADREVDRSPTGSGTGGRVAQLYQRGLLAAGDTLVNESIVGTVFKGRVLRETTVGDIPAVIPEVEGSAHICGFANWIVDERDPLTYGFLVR
By stoichiometry N is commonly meant the number of molecules, sites or subunits per partner or assembly. For B1, in “SEC”, the “stoichiometry N” value amounted to 2.

B2: CpLhpI, Δ1-pyrroline-2-carboxylate reductase of Colwellia psychrerythraea 34H (enzyme, UniProt Q485R8 1-316, looked up)
chain: MKIISAEQVHQNLNFEELIPLLKQSFSRPFSMPQRQVYSLAPEQSENHDAFALLPSWNEEVIGNKAFTYFPDNAKKHDLPGLFSKIMLFKRQTGEPLALVDGTSVTYWRTAAISALASQLLSRKNSQHLMLFGTGNLASYLVKAHLTVRDIKQVTLWGRNAKKVSKLIADFSILYPAVTFKTSVDVNAEVASADIICCATGAKTPLFDGNSVSAGCHIDCLGNHMTDARECDTTTILRARVFVDSLTNTLNEAGELLIPMAEDAFNKDEIVGELADMCKTPSMLRQSSDEITLFKSVGTAISDLVAAHSVVEKLAD
By Km is commonly meant the substrate concentration at which the rate is half of its maximum. The term kcat denotes the maximal rate divided by the concentration of active sites. In general, kcat/Km refers to the turnover number divided by the Michaelis constant. As to B2, the Km turned out to be 7.26 ± 1.22 mM in the series “purified protein [1]” (setting [6]); 5.90 ± 0.36 mM in “purified protein [2]” (setting [6]); 18.3 ± 2.4 mM in “purified protein [3]” (glycine-NaOH pH 10.5, 30 °C); 8.28 ± 2.45 mM in the series “purified protein [4]” (setting [6]); 80.1 ± 2.8 mM in “purified protein [5]” (glycine-NaOH pH 10.5, 30 °C). Moreover, the kcat in “purified protein [1]” (setting [6]) was 1.38 ± 0.228 s⁻¹; in “purified protein [2]” (setting [6]), 124 ± 7.83 s⁻¹; in “purified protein [3]” (glycine-NaOH pH 10.5, 30 °C) it was 1.09 ± 0.115 s⁻¹; in “purified protein [4]” (setting [6]), 1.02 ± 0.287 s⁻¹; in “purified protein [5]” (glycine-NaOH pH 10.5, 30 °C), 0.0213 ± 0.000667 s⁻¹. Besides, the kcat/Km in “purified protein [1]” (setting [6]) is 190 ± 3.33 M⁻¹ s⁻¹; in “purified protein [2]” (setting [6]), 21170 ± 33.3 M⁻¹ s⁻¹; in “purified protein [3]” (glycine-NaOH pH 10.5, 30 °C) it was 59.5 ± 1.5 M⁻¹ s⁻¹; in “purified protein [4]” (setting [6]), 124 ± 2.33 M⁻¹ s⁻¹; in “purified protein [5]” (glycine-NaOH pH 10.5, 30 °C) it was 0.267 ± 0.0167 M⁻¹ s⁻¹. Besides, the “stoichiometry N” value in the series “SEC” is 2.

B3: AbLhpI, Δ1-pyrroline-2-carboxylate reductase of Azospirillum brasilense (enzyme, UniProt V5YW53 1-311, looked up)
chain: MTALSPIPVFDAADTAALLAYPALLATLGQAVADYAAGEIVSPERLVVPLQAGGVMLSMPSSARDLATHKLVNVCPGNGARGLPTILGQVTAYDASTGEMRFALDGPTVTGRRTAAVTALGIQALHGAAPRDILLIGTGKQAANHAEALAAIFPEARLHVRGTSADSAAAFCAAHRAQAPRLVPLDGDAIPDAIDVVVTLTTSRTPVYREAAREGRLVVGVGAFTADAAEIDANTVRASRLVVDDPAGARHEAGDLIVAQVDWQHVASLADVLGGTFDRSGPLLFKSVGCAAWDLAACRTARDALAARRAG
For B3, the Km in the series “purified protein [1]” (setting [6]) was 0.474 ± 0.050 mM; in the series “purified protein [2]” (setting [6]), 0.628 ± 0.045 mM; in the series “purified protein [3]” (glycine-NaOH pH 10.5, 30 °C) it was 3.63 ± 0.31 mM; in the series “purified protein [4]” (setting [6]), 0.491 ± 0.063 mM; in “purified protein [5]” (glycine-NaOH pH 10.5, 30 °C), 6.54 ± 0.96 mM. In addition, the kcat was 166 ± 10.2 s⁻¹ in the series “purified protein [1]” (setting [6]); 523 ± 21.7 s⁻¹ in “purified protein [2]” (setting [6]); 3.92 ± 0.117 s⁻¹ in the series “purified protein [3]” (glycine-NaOH pH 10.5, 30 °C); 10.3 ± 0.967 s⁻¹ in “purified protein [4]” (setting [6]); 2.5 ± 0.233 s⁻¹ in “purified protein [5]” (glycine-NaOH pH 10.5, 30 °C). Further, the kcat/Km in the series “purified protein [1]” (setting [6]) stood at 352000 ± 16800 M⁻¹ s⁻¹; in “purified protein [2]” (setting [6]) it was 835000 ± 23300 M⁻¹ s⁻¹; in “purified protein [3]” (glycine-NaOH pH 10.5, 30 °C) it was 1080 ± 61.7 M⁻¹ s⁻¹; in “purified protein [4]” (setting [6]), 21200 ± 750 M⁻¹ s⁻¹; in “purified protein [5]” (glycine-NaOH pH 10.5, 30 °C) it was 383 ± 20 M⁻¹ s⁻¹. In addition, in “SEC”, the “stoichiometry N” value turned out to be 2.

B4: PaLhpD, Pyr2C/Pip2C reductase of Pseudomonas aeruginosa (enzyme, Pseudomonas aeruginosa PAO1, UniProt Q9I492 1-334, looked up)
chain: MIRMTLDEVRELAVRILRRHAFSEAHVQAVADTLVAGERDECASHGIWRLLGCIATLKAGKVSADAEPELHDIAPGLLRVDAHGGFSQCAFRLGLPHLLEKARSQGIAAMAVNRCVHFSALWVEVEALTEAGLVALATTPSHAWVAPAGGRKPIFGTNPIAFGWPRPDGPPFVFDFATSAVARGEIQLHERAGKPIPLGWGVDEQGEPTTDASAALRGAMLTFGGHKGSALAAMVELLAGPLIGDLTSAESLAYDEGSRSSPYGGELLIAIDPRRMLGASAEEHLARAETLFEGIVEQGARLPSQRRFEARERSARDGVTIPEALHRELLALLE
On to B4, for which the Km in “purified protein [1]” (setting [7]) is given as 1.57 ± 0.3 mM; in “purified protein [2]” (setting [7]) it was 0.447 ± 0.040 mM; in the series “purified protein [3]” (glycine-NaOH pH 10.0, 30 °C), 18.5 ± 2.1 mM; in the series “purified protein [4]” (setting [7]), 0.835 ± 0.109 mM; in “purified protein [5]” (glycine-NaOH pH 10.0, 30 °C) it was 34.8 ± 4.0 mM. Besides, the kcat came to 35.3 ± 4.83 s⁻¹ in “purified protein [1]” (setting [7]); 41.7 ± 2 s⁻¹ in the series “purified protein [2]” (setting [7]); 3.42 ± 0.3 s⁻¹ in “purified protein [3]” (glycine-NaOH pH 10.0, 30 °C); 14.5 ± 1.18 s⁻¹ in “purified protein [4]” (setting [7]); 2.25 ± 0.233 s⁻¹ in “purified protein [5]” (glycine-NaOH pH 10.0, 30 °C). Also, the kcat/Km in the series “purified protein [1]” (setting [7]) came to 22500 ± 1130 M⁻¹ s⁻¹; in “purified protein [2]” (setting [7]), 93300 ± 3670 M⁻¹ s⁻¹; in “purified protein [3]” (glycine-NaOH pH 10.0, 30 °C), 185 ± 5 M⁻¹ s⁻¹; in “purified protein [4]” (setting [7]), 17400 ± 800 M⁻¹ s⁻¹; in “purified protein [5]” (glycine-NaOH pH 10.0, 30 °C) it was 64.7 ± 0.833 M⁻¹ s⁻¹. Further, in “SEC”, the “stoichiometry N” value is 2.

B5: CpLhpH, trans-3-hydroxy-L-proline dehydratase of Colwellia psychrerythraea 34H (enzyme, UniProt Q485S0 1-355, looked up)
chain: MTKNIAQAAVKFEQWQPKIEQESYLTINSLECHTGGEPLRIITSGFPVLKGNTILAKANDCKQNYDQLRRALMFEPRGHADMYGAIITDAERDDSHFGAVFIHNEGYSSMCGHAVIALTKTAVESGVVARTGDVTQVVIDVPCGQIYAMAYSHNNVVKHVSFQCVPSFVYAKDQQVEVDGIGMVQFDIAYGGAFYAYVQASSLGLSLVPEQQEKLIAYGRKIKQAIIPQFEINHPTTAELSFLYGVIFIDDSPNQDVHSRNVCIFADGELDRSPTGSGVSGRIALHHAKQQIVLNETITIESILASSFSVRAIETVCFAGFDAVIPEVTGDAYVCGKGQWFINAEDPLKYGFLLR
For the protein B5, the “stoichiometry N” value in the series “SEC” was 2.

B6: C14orf149, human trans-3-hydroxy-L-proline dehydratase (enzyme, UniProt Q96EM0 1-354, looked up)
chain: MESALAVPRLPPHDPGTPVLSVVDMHTGGEPLRIVLAGCPEVSGPTLLAKRRYMRQHLDHVRRRLMFEPRGHRDMYGAVLVPSELPDAHLGVLFLHNEGYSSMCGHAVLALGRFALDFGLVPAPPAGTREARVNIHCPCGLVTAFVACEDGRSHGPVRFHSVPAFVLATDLMVDVPGHGKVMVDIAYGGAFYAFVTAEKLGLDICSAKTRDLVDAASAVTEAVKAQFKINHPDSEDLAFLYGTILTDGKDAYTKEPTTNICVFADEQVDRSPTGSGVTARIALQYHKGLLELNQMRAFKSSATGSVFTGKAVREAKCGDFKAVIVEVSGQAHYTGTASFIIEDDDPLRDGFLLK
Regarding B6, in the series “SEC”, the “stoichiometry N” value was determined as 2.
